The text below walks through data of US20180147232.

For this data set, the target named is Flag-TSC2 (UniProt P49815).
Sequence of Flag-TSC2 (P49815 whole entry): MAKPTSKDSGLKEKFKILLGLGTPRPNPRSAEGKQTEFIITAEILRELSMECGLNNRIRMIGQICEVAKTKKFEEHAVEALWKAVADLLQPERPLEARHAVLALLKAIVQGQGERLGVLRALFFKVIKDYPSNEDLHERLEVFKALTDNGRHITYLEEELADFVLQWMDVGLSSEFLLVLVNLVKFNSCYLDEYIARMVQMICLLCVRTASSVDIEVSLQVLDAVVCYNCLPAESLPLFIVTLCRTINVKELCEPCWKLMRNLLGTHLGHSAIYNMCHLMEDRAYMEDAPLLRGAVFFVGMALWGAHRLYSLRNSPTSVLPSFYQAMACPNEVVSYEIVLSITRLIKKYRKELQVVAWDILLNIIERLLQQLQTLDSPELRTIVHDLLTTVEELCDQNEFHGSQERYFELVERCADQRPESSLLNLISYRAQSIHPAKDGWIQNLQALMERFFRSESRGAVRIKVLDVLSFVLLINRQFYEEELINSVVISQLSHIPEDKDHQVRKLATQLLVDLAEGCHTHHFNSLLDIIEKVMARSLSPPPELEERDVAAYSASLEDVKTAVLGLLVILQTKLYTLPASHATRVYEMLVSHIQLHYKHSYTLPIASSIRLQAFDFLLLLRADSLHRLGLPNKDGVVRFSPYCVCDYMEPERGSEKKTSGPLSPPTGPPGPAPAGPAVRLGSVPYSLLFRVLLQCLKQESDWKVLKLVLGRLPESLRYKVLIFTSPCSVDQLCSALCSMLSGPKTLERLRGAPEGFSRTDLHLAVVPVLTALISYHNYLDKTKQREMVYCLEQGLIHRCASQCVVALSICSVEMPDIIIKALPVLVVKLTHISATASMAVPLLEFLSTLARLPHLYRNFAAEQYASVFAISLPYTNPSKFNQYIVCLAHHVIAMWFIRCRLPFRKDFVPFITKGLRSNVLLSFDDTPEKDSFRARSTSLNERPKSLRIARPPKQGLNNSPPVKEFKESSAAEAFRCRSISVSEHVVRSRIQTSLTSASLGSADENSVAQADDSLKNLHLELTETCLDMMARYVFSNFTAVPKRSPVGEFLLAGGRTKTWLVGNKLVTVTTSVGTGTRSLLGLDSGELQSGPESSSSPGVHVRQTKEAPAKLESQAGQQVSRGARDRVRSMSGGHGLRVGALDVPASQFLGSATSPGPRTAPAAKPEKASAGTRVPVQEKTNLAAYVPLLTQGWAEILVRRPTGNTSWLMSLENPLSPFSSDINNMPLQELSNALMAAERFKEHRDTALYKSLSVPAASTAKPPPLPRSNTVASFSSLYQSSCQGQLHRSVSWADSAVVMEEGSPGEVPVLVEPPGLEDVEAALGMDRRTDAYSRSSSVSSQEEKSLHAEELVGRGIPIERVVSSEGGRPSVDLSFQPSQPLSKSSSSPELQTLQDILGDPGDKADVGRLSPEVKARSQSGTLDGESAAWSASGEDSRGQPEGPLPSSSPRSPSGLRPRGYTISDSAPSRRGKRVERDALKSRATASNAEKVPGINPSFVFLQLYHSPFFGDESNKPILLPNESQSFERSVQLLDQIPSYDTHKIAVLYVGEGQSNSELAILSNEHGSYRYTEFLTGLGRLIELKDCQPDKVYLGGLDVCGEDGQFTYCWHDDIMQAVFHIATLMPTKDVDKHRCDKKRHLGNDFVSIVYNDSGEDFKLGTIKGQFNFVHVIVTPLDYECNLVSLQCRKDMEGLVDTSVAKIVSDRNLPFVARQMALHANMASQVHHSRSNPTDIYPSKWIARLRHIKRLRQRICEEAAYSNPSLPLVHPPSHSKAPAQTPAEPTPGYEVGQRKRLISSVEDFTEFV

Consider HA-SGK1, for which the “phosphorylation of RXRXX(S/T) motifs on co-expression” value is “co-expression of SGK1 with TSC2 increased the phosphorylation of RXRXX(S/T) (SEQ ID NO: 1) motifs”.
